Patent US20090202619A1, “POLYOXYALKYLENE CHAIN-CONTAINING LIPID DERIVATIVE AND LIPID FILM STRUCTURE CONTAINING SUCH DERIVATIVE” (THE UNIVERSITY OF TOKUSHIMA, priority 2005, published 2009)

Design: species or system male ddY mouse
Conditions: mouse, in vivo, iv
From the text: Using the methylpolyoxyethylenecarbamyl-glycyl-glycyl-glycyl-distearoylphosphadylethanolamine (DSPE-GGG-PEG2000) obtained in Example 5 or the methylpolyoxyethylenecarbamyl-distearoylphosphadylethanolamine (DSPE-PEG2000), egg yolk phosphatidylcholine (EPC) or hydrogenated egg yolk phosphatidylcholine (HEPC), and cholesterol, a composition in the blending ratios shown in Table 2 below was weighed in an egg plant flask, and the liposome solutions of Example 9 and Comparative Examples 4 to 5 were obtained by the same method as (1) above but using doxorubicin in place of the fluorescent dye. To monitor the blood kinetics of the liposome per se, 40 μCi/μmol ^3H-cholesterylhexadecyl ether (^3H-CHE) was added. […]
Next, each liposome was administered to a male ddY mouse from the tail vein (25 mg lipid/kg), blood was collected 2 minutes, 30 minutes, 1 hour, 2 hours, 4 hours, 8 hours, and 24 hours after the administration, the radioactivity in blood was measured to determine the concentration of the liposome per se, and doxorubicin was measured by the fluorescence method to determine the doxorubicin concentration at that time point. Because the doxorubicin that has leaked from the liposome is quickly distributed in various tissues, doxorubicin concentrations determined by this method are considered to reflect the amount of doxorubicin retained in the liposome.

methylpolyoxyethylenecarbamyl-glycyl-glycyl-glycyl-distearoylphosphadylethanolamine [Example 4]
cleavage of the lipid derivative in blood: minimally cleaved in blood | influence on the drug-releasing characteristics of liposome: did not influence the drug-releasing characteristics of liposome
